This note sets out measurements from patent publication US6060451, “Thrombin inhibitors based on the amino acid sequence of hirudin” (The National Research Council of Canada, dated 2000).

The assay concerns the target human α-thrombin (human, UniProt P00734). Description: inhibition of thrombin-mediated hydrolysis of Tosyl-Gly-Pro-Arg-AMC (fluorogenic amidolytic assay).

Non-standard residues stand in square brackets, D forms with d.

B1: P184 (SEQ ID NO:6) (BCH-1710) (peptide)
peptide: Ac-[dF]PR[(CH2)4CO][NH‑CH2‑CH:CH‑CH2‑CO][NH‑CH2‑CH:CH‑CH2‑CO]DFEPIPL-OH
In the case of B1, the affinity, expressed as Ki, was 3.5 nM.

B2: P183 (SEQ ID NO:5) (peptide)
peptide: Ac-[dF]PR[(CH2)4CO][NH‑CH2‑CH:CH‑CH2‑CO]DFEPIPL-OH
For the molecule B2, the affinity corresponds to a Ki of 300 nM.

B3: P185 (SEQ ID NO:7) (peptide)
peptide: Ac-[dF]PR[(CH2)4CO][NH‑CH2‑CH:CH‑CH2‑CO][NH‑CH2‑CH:CH‑CH2‑CO][NH‑CH2‑CH:CH‑CH2‑CO]DFEPIPL-OH
For B3, the Ki is 3.2 nM.
